Results on two compounds are retold here after patent US20130079246A1 (ADDEX PHARMA SA, priority 2010, published 2013).

In assay [1] the target is T1, chimeric TNFR1-PDGFR receptor (full length human TNFR1 fused to cytoplasmic domain of mouse PDGFR) (Homo sapiens, UniProt P19438).
T1 construct: 1, 2; full length; cytoplasmic domain (cp); expressed in transfected cells; host or cells: HEK293T cells stably expressing apoaequorin
Put plainly: Ca2+-dependent aequorin luminescence in HEK293T Aequorin cells expressing the chimeric receptor (HTS setting). The assay is classed as cell-based. The source says: HEK293T stably expressing Apoaequorin were generated using standard cloning techniques. The HEK293T cells expressing Apoaequorin (“Aequorin cells”) were then further transfected as described in Examples 1-3 so as to express the chimeric receptors 1-3 as listed in Table 3.
In particular, the HEK293T Apoaequorin cells were transfected with pcDNA3.1 hygro TNFR1-fl-PDGFR-cd vector as prepared in Example 1 using Optifect™ Transfection Reagent (Invitrogen), according to the manufacturer's protocol.
HEK293T cells expressing Apoaequorin and the chimeric receptor (Example 4) were plated in 384-well plates at a concentration of 12500 cells per well in a final volume of 50 μl. […] A FDSS7000 reader from Hamamatsu (Japan) was used to examine intracellular calcium levels. […] The instrument features include detection with a camera of fluorescence or luminescence and automatically converts fluorescence or luminescence signals into numeric data. This digital data is then used to determine the concentration of calcium inside the analyzed cells. The information is automatically analyzed in terms of a positive, negative or null effect of each test compound being examined. This system allowed differences between untreated and treated cells to be measured, for example by measuring the calcium flux in cells. […]

Assay [2] concerns the target chimeric receptor: full length human TNFR1 fused to the cytoplasmic tyrosine kinase domain of mouse PDGFR (human TNFR1; mouse PDGFR). Put plainly: cell-based or functional assay.

Sequence of chimeric receptor: full length human TNFR1 fused to the cytoplasmic tyrosine kinase domain of mouse PDGFR (human TNFR1; mouse PDGFR) (chain, as listed by the source mutant limits assumed): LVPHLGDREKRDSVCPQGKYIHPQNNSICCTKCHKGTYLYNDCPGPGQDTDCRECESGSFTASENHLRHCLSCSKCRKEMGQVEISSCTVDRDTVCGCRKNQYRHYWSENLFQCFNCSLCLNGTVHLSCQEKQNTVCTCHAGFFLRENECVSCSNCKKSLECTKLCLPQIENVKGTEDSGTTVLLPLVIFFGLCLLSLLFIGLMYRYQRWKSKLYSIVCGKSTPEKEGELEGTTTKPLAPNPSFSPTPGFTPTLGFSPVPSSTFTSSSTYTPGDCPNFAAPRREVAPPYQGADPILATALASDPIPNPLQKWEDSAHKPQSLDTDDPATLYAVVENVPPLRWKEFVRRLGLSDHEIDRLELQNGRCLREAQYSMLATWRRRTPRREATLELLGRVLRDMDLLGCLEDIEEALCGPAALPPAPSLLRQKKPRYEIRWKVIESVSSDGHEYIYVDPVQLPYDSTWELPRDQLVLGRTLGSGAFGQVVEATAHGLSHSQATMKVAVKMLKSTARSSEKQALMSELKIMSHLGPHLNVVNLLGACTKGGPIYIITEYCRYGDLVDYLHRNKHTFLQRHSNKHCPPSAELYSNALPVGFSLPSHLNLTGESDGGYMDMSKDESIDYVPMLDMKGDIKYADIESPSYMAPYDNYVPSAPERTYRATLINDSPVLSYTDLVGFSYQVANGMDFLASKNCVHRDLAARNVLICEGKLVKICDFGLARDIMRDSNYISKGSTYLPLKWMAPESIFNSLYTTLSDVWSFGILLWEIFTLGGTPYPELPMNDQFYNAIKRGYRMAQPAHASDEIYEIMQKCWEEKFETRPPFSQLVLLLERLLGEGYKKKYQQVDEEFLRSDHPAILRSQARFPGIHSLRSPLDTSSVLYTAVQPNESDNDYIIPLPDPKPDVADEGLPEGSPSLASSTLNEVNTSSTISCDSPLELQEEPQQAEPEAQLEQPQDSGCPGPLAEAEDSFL
Sequence of TNF (ligand) (P01375 77-233): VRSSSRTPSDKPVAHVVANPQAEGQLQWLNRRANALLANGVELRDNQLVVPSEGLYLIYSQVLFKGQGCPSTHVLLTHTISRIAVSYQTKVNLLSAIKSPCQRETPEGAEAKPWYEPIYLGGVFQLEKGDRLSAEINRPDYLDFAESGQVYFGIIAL
T1 sequence (P19438 with tags, fused parts or gaps): as the sequence (chain, as listed by the source mutant limits assumed) above

With `COc1cc2ncnc(N3CCN(C(=O)Nc4ccc(Oc5ccccc5)cc4)CC3)c2cc1OC` [PDGFR Tyrosine Kinase Inhibitor III, 4-(6,7-Dimethoxy-4-quinazolinyl)-N-(4-phenoxyphenyl)-1-piperazinecarboxamide], in assay [1] (1 μM inhibitor, 3 ng/ml TNF, FIG. 5b), the “Effect on TNF-dependent intracellular calcium increase” value is “prevented the detection of intracellular calcium increase”. Also, the “Inhibitory efficacy, dose response compared with cells expressing full-length PDGFR” value in assay [1] (inhibitor 3 μM to 0.45 nM, cells exposed to TNF, FIG. 6) is “equal inhibitory efficacy”.

In assay [2], TNF (ligand) came in with an EC50, Ca2+-dependent aequorin luminescence, AUC over 10 minutes of 1.27 ng/mL; an EC50, Ca2+-dependent aequorin luminescence, Max-Min of 1.06 ng/mL; an EC80, Ca2+-dependent aequorin luminescence, AUC over 10 minutes of 2.9 ng/mL; an EC80, Ca2+-dependent aequorin luminescence, Max-Min of 3 ng/mL.
